In assay [1] the target is Pf-WRS catalytic domain (aminoacylation and anticodon binding domains) (Plasmodium falciparum). The assay is described as follows: SEC; gel filtration on Superdex200, 20 mM Tris, 100 mM NaCl, pH 7.5; oligomeric state from migration against markers (BSA, DTD). (In general: Size exclusion chromatography separates by hydrodynamic size, large species first.)
Assay [2] deals with Plasmodium falciparum cytoplasmic tryptophanyl-tRNA synthetase, full length (Plasmodium falciparum). The assay is described as above.

Drawing on article PMC3680381, this text covers stoichiometry N for 2 substances.

For orientation: stoichiometry N means the number of molecules, sites or subunits per partner or assembly.

In assay [1], “Pf-WRS catalytic domain (aminoacylation and anticodon binding domains) (domain or fragment)” registered a stoichiometry N of 2. With “Plasmodium falciparum cytoplasmic tryptophanyl-tRNA synthetase, full length (enzyme)”, the stoichiometry N in assay [2] was 2.
